Source: patent US20230235013A1 (MABSOLVE, published 2023)

B1: anti-CD20 human IgG1 L234G/L235G/G236R (antibody)
heavy: QVQLQQPGAELVKPGASVKMSCKASGYTFTSYNMHWVKQTPGRGLEWIGAIYPGNGDTSYNQKFKGKATLTADKSSSTAYMQLSSLTSEDSAVYYCARSTYYGGDWYFNVWGAGTTVTVSSASTKGPSVFPLAPSSKSTSGGTAALGCLVKDYFPEPVTVSWNSGALTSGVHTFPAVLQSSGLYSLSSVVTVPSSSLGTQTYICNVNHKPSNTKVDKKVEPKSCDKTHTCPPCPAPEGGRGPSVFLFPPKPKDTLMISRTPEVTCVVVDVSHEDPEVKFNWYVDGVEVHNAKTKPREEQYNSTYRVVSVLTVLHQDWLNGKEYKCKVSNKALPAPIEKTISKAKGQPREPQVYTLPPSRDELTKNQVSLTCLVKGFYPSDIAVEWESNGQPENNYKTTPPVLDSDGSFFLYSKLTVDKSRWQQGNVFSCSVMHEALHNHYTQKSLSLSPGK
light: QIVLSQSPAILSASPGEKVTMTCRASSSVSYIHWFQQKPGSSPKPWIYATSNLASGVPVRFSGSGSGTSYSLTISRVEAEDAATYYCQQWTSNPPTFGGGTKLEIKRTVAAPSVFIFPPSDEQLKSGTASVVCLLNNFYPREAKVQWKVDNALQSGNSQESVTEQDSKDSTYSLSSTLTLSKADYEKHKVYACEVTHQGLSSPVTKSFNRGEC
notes: also called 1-50; copies: 2 + 2
B2: anti-CD20 human IgG1 L234G/L235H/G236R (antibody)
heavy: QVQLQQPGAELVKPGASVKMSCKASGYTFTSYNMHWVKQTPGRGLEWIGAIYPGNGDTSYNQKFKGKATLTADKSSSTAYMQLSSLTSEDSAVYYCARSTYYGGDWYFNVWGAGTTVTVSSASTKGPSVFPLAPSSKSTSGGTAALGCLVKDYFPEPVTVSWNSGALTSGVHTFPAVLQSSGLYSLSSVVTVPSSSLGTQTYICNVNHKPSNTKVDKKVEPKSCDKTHTCPPCPAPEGHRGPSVFLFPPKPKDTLMISRTPEVTCVVVDVSHEDPEVKFNWYVDGVEVHNAKTKPREEQYNSTYRVVSVLTVLHQDWLNGKEYKCKVSNKALPAPIEKTISKAKGQPREPQVYTLPPSRDELTKNQVSLTCLVKGFYPSDIAVEWESNGQPENNYKTTPPVLDSDGSFFLYSKLTVDKSRWQQGNVFSCSVMHEALHNHYTQKSLSLSPGK
light: QIVLSQSPAILSASPGEKVTMTCRASSSVSYIHWFQQKPGSSPKPWIYATSNLASGVPVRFSGSGSGTSYSLTISRVEAEDAATYYCQQWTSNPPTFGGGTKLEIKRTVAAPSVFIFPPSDEQLKSGTASVVCLLNNFYPREAKVQWKVDNALQSGNSQESVTEQDSKDSTYSLSSTLTLSKADYEKHKVYACEVTHQGLSSPVTKSFNRGEC
notes: also called 1-51; 2-17; copies: 2 + 2
B3: anti-CD20 human IgG1 L234G/L235I/G236R (antibody)
heavy: QVQLQQPGAELVKPGASVKMSCKASGYTFTSYNMHWVKQTPGRGLEWIGAIYPGNGDTSYNQKFKGKATLTADKSSSTAYMQLSSLTSEDSAVYYCARSTYYGGDWYFNVWGAGTTVTVSSASTKGPSVFPLAPSSKSTSGGTAALGCLVKDYFPEPVTVSWNSGALTSGVHTFPAVLQSSGLYSLSSVVTVPSSSLGTQTYICNVNHKPSNTKVDKKVEPKSCDKTHTCPPCPAPEGIRGPSVFLFPPKPKDTLMISRTPEVTCVVVDVSHEDPEVKFNWYVDGVEVHNAKTKPREEQYNSTYRVVSVLTVLHQDWLNGKEYKCKVSNKALPAPIEKTISKAKGQPREPQVYTLPPSRDELTKNQVSLTCLVKGFYPSDIAVEWESNGQPENNYKTTPPVLDSDGSFFLYSKLTVDKSRWQQGNVFSCSVMHEALHNHYTQKSLSLSPGK
light: QIVLSQSPAILSASPGEKVTMTCRASSSVSYIHWFQQKPGSSPKPWIYATSNLASGVPVRFSGSGSGTSYSLTISRVEAEDAATYYCQQWTSNPPTFGGGTKLEIKRTVAAPSVFIFPPSDEQLKSGTASVVCLLNNFYPREAKVQWKVDNALQSGNSQESVTEQDSKDSTYSLSSTLTLSKADYEKHKVYACEVTHQGLSSPVTKSFNRGEC
notes: also called 1-52; copies: 2 + 2
B4: anti-CD20 human IgG1 L234G/L235K/G236R (antibody)
heavy: QVQLQQPGAELVKPGASVKMSCKASGYTFTSYNMHWVKQTPGRGLEWIGAIYPGNGDTSYNQKFKGKATLTADKSSSTAYMQLSSLTSEDSAVYYCARSTYYGGDWYFNVWGAGTTVTVSSASTKGPSVFPLAPSSKSTSGGTAALGCLVKDYFPEPVTVSWNSGALTSGVHTFPAVLQSSGLYSLSSVVTVPSSSLGTQTYICNVNHKPSNTKVDKKVEPKSCDKTHTCPPCPAPEGKRGPSVFLFPPKPKDTLMISRTPEVTCVVVDVSHEDPEVKFNWYVDGVEVHNAKTKPREEQYNSTYRVVSVLTVLHQDWLNGKEYKCKVSNKALPAPIEKTISKAKGQPREPQVYTLPPSRDELTKNQVSLTCLVKGFYPSDIAVEWESNGQPENNYKTTPPVLDSDGSFFLYSKLTVDKSRWQQGNVFSCSVMHEALHNHYTQKSLSLSPGK
light: QIVLSQSPAILSASPGEKVTMTCRASSSVSYIHWFQQKPGSSPKPWIYATSNLASGVPVRFSGSGSGTSYSLTISRVEAEDAATYYCQQWTSNPPTFGGGTKLEIKRTVAAPSVFIFPPSDEQLKSGTASVVCLLNNFYPREAKVQWKVDNALQSGNSQESVTEQDSKDSTYSLSSTLTLSKADYEKHKVYACEVTHQGLSSPVTKSFNRGEC
notes: also called 1-53; copies: 2 + 2
B5: anti-CD20 human IgG1 L234G/L235M/G236R (antibody)
heavy: QVQLQQPGAELVKPGASVKMSCKASGYTFTSYNMHWVKQTPGRGLEWIGAIYPGNGDTSYNQKFKGKATLTADKSSSTAYMQLSSLTSEDSAVYYCARSTYYGGDWYFNVWGAGTTVTVSSASTKGPSVFPLAPSSKSTSGGTAALGCLVKDYFPEPVTVSWNSGALTSGVHTFPAVLQSSGLYSLSSVVTVPSSSLGTQTYICNVNHKPSNTKVDKKVEPKSCDKTHTCPPCPAPEGMRGPSVFLFPPKPKDTLMISRTPEVTCVVVDVSHEDPEVKFNWYVDGVEVHNAKTKPREEQYNSTYRVVSVLTVLHQDWLNGKEYKCKVSNKALPAPIEKTISKAKGQPREPQVYTLPPSRDELTKNQVSLTCLVKGFYPSDIAVEWESNGQPENNYKTTPPVLDSDGSFFLYSKLTVDKSRWQQGNVFSCSVMHEALHNHYTQKSLSLSPGK
light: QIVLSQSPAILSASPGEKVTMTCRASSSVSYIHWFQQKPGSSPKPWIYATSNLASGVPVRFSGSGSGTSYSLTISRVEAEDAATYYCQQWTSNPPTFGGGTKLEIKRTVAAPSVFIFPPSDEQLKSGTASVVCLLNNFYPREAKVQWKVDNALQSGNSQESVTEQDSKDSTYSLSSTLTLSKADYEKHKVYACEVTHQGLSSPVTKSFNRGEC
notes: also called 1-55; copies: 2 + 2
B6: anti-CD20 human IgG1 L234G/L235N/G236R (antibody)
heavy: QVQLQQPGAELVKPGASVKMSCKASGYTFTSYNMHWVKQTPGRGLEWIGAIYPGNGDTSYNQKFKGKATLTADKSSSTAYMQLSSLTSEDSAVYYCARSTYYGGDWYFNVWGAGTTVTVSSASTKGPSVFPLAPSSKSTSGGTAALGCLVKDYFPEPVTVSWNSGALTSGVHTFPAVLQSSGLYSLSSVVTVPSSSLGTQTYICNVNHKPSNTKVDKKVEPKSCDKTHTCPPCPAPEGNRGPSVFLFPPKPKDTLMISRTPEVTCVVVDVSHEDPEVKFNWYVDGVEVHNAKTKPREEQYNSTYRVVSVLTVLHQDWLNGKEYKCKVSNKALPAPIEKTISKAKGQPREPQVYTLPPSRDELTKNQVSLTCLVKGFYPSDIAVEWESNGQPENNYKTTPPVLDSDGSFFLYSKLTVDKSRWQQGNVFSCSVMHEALHNHYTQKSLSLSPGK
light: QIVLSQSPAILSASPGEKVTMTCRASSSVSYIHWFQQKPGSSPKPWIYATSNLASGVPVRFSGSGSGTSYSLTISRVEAEDAATYYCQQWTSNPPTFGGGTKLEIKRTVAAPSVFIFPPSDEQLKSGTASVVCLLNNFYPREAKVQWKVDNALQSGNSQESVTEQDSKDSTYSLSSTLTLSKADYEKHKVYACEVTHQGLSSPVTKSFNRGEC
notes: also called 1-56; copies: 2 + 2
B7: anti-CD20 human IgG1 L234G/L235Q/G236R (antibody)
heavy: QVQLQQPGAELVKPGASVKMSCKASGYTFTSYNMHWVKQTPGRGLEWIGAIYPGNGDTSYNQKFKGKATLTADKSSSTAYMQLSSLTSEDSAVYYCARSTYYGGDWYFNVWGAGTTVTVSSASTKGPSVFPLAPSSKSTSGGTAALGCLVKDYFPEPVTVSWNSGALTSGVHTFPAVLQSSGLYSLSSVVTVPSSSLGTQTYICNVNHKPSNTKVDKKVEPKSCDKTHTCPPCPAPEGQRGPSVFLFPPKPKDTLMISRTPEVTCVVVDVSHEDPEVKFNWYVDGVEVHNAKTKPREEQYNSTYRVVSVLTVLHQDWLNGKEYKCKVSNKALPAPIEKTISKAKGQPREPQVYTLPPSRDELTKNQVSLTCLVKGFYPSDIAVEWESNGQPENNYKTTPPVLDSDGSFFLYSKLTVDKSRWQQGNVFSCSVMHEALHNHYTQKSLSLSPGK
light: QIVLSQSPAILSASPGEKVTMTCRASSSVSYIHWFQQKPGSSPKPWIYATSNLASGVPVRFSGSGSGTSYSLTISRVEAEDAATYYCQQWTSNPPTFGGGTKLEIKRTVAAPSVFIFPPSDEQLKSGTASVVCLLNNFYPREAKVQWKVDNALQSGNSQESVTEQDSKDSTYSLSSTLTLSKADYEKHKVYACEVTHQGLSSPVTKSFNRGEC
notes: also called 1-57; 2-18; copies: 2 + 2
B8: anti-CD20 human IgG1 L234G/L235R/G236R (antibody)
heavy: QVQLQQPGAELVKPGASVKMSCKASGYTFTSYNMHWVKQTPGRGLEWIGAIYPGNGDTSYNQKFKGKATLTADKSSSTAYMQLSSLTSEDSAVYYCARSTYYGGDWYFNVWGAGTTVTVSSASTKGPSVFPLAPSSKSTSGGTAALGCLVKDYFPEPVTVSWNSGALTSGVHTFPAVLQSSGLYSLSSVVTVPSSSLGTQTYICNVNHKPSNTKVDKKVEPKSCDKTHTCPPCPAPEGRRGPSVFLFPPKPKDTLMISRTPEVTCVVVDVSHEDPEVKFNWYVDGVEVHNAKTKPREEQYNSTYRVVSVLTVLHQDWLNGKEYKCKVSNKALPAPIEKTISKAKGQPREPQVYTLPPSRDELTKNQVSLTCLVKGFYPSDIAVEWESNGQPENNYKTTPPVLDSDGSFFLYSKLTVDKSRWQQGNVFSCSVMHEALHNHYTQKSLSLSPGK
light: QIVLSQSPAILSASPGEKVTMTCRASSSVSYIHWFQQKPGSSPKPWIYATSNLASGVPVRFSGSGSGTSYSLTISRVEAEDAATYYCQQWTSNPPTFGGGTKLEIKRTVAAPSVFIFPPSDEQLKSGTASVVCLLNNFYPREAKVQWKVDNALQSGNSQESVTEQDSKDSTYSLSSTLTLSKADYEKHKVYACEVTHQGLSSPVTKSFNRGEC
notes: also called 1-58; copies: 2 + 2
B9: anti-CD20 human IgG1 L234G/L235T/G236R (antibody)
heavy: QVQLQQPGAELVKPGASVKMSCKASGYTFTSYNMHWVKQTPGRGLEWIGAIYPGNGDTSYNQKFKGKATLTADKSSSTAYMQLSSLTSEDSAVYYCARSTYYGGDWYFNVWGAGTTVTVSSASTKGPSVFPLAPSSKSTSGGTAALGCLVKDYFPEPVTVSWNSGALTSGVHTFPAVLQSSGLYSLSSVVTVPSSSLGTQTYICNVNHKPSNTKVDKKVEPKSCDKTHTCPPCPAPEGTRGPSVFLFPPKPKDTLMISRTPEVTCVVVDVSHEDPEVKFNWYVDGVEVHNAKTKPREEQYNSTYRVVSVLTVLHQDWLNGKEYKCKVSNKALPAPIEKTISKAKGQPREPQVYTLPPSRDELTKNQVSLTCLVKGFYPSDIAVEWESNGQPENNYKTTPPVLDSDGSFFLYSKLTVDKSRWQQGNVFSCSVMHEALHNHYTQKSLSLSPGK
light: QIVLSQSPAILSASPGEKVTMTCRASSSVSYIHWFQQKPGSSPKPWIYATSNLASGVPVRFSGSGSGTSYSLTISRVEAEDAATYYCQQWTSNPPTFGGGTKLEIKRTVAAPSVFIFPPSDEQLKSGTASVVCLLNNFYPREAKVQWKVDNALQSGNSQESVTEQDSKDSTYSLSSTLTLSKADYEKHKVYACEVTHQGLSSPVTKSFNRGEC
notes: also called 1-60; copies: 2 + 2

target: T1, Histidine-tagged recombinant human FcγRI (CD64) (human, UniProt P12314 16-288); test: SPR, culture supernatant, captured His-FcγRI;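 note: biacore T200 SPR at 25 °C, anti-His capture, supernatants of HEK293 cells expressing IgG1 Fc variants injected 1 min, reference-subtracted response read 55 s after injection start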
T1 construct: bought; also called Sino Biological Cat. No. 12056-H08H

Point of comparison: B8, Mean binding response 29.3 RU. Against it:
- B1 — higher, 29.5 RU
- B2 — lower, 19 RU
- B3 — lower, 29.2 RU
- B4 — lower, 27.4 RU
- B5 — lower, 23.2 RU
- B6 — lower, 26.8 RU
- B7 — lower, 13.6 RU
- B9 — lower, 26.5 RU
